Laboratory results as given in article PMC7876468 (Frontiers in Medicine, 2021).
Positions count from the first letter of the chain named.

B1: CC3-hop (VHH)
VHH: EVQLQASGGGSVQAGGSLRLSCVTSQNLFEYYTMGWYRQVPGSQRERVALINNGGSTVAGSVEGRFTISRDHAKNSVYLQMNYLKPEDSAVYYCRAFGPADYWGQGTQVTVSS
notes: also called CC3 with the hop tail; original CC3-hop
B2: CC3-m5hop (VHH)
VHH: B1 VHH with Q3K
notes: Theoretical pI 8.40
B3: CC3-m3hop (VHH)
VHH: B1 VHH with Q5V, A6E, K85Q
notes: Theoretical pI 6.63
B4: CC3-m6hop (VHH)
VHH: B1 VHH with E1Q, Q3K
notes: Theoretical pI 8.75
B5: CC3-m8hop (VHH)
VHH: B1 VHH with E1Q, Q3K, E63K
notes: Theoretical pI 9.18; also called variant 8
B6: CC3-m7hop (VHH)
VHH: B1 VHH with E1Q, Q3K, E63V
notes: Theoretical pI 9.0
B7: CC3-m2hop (VHH)
VHH: B1 VHH with Q5V, A6E, G16D, K85Q
notes: Theoretical pI 6.35
B8: CC3-m9hop (VHH)
VHH: B1 VHH with E1Q, Q3K, E63K, P86R
notes: Theoretical pI 9.35; also called variant 9
B9: CC3-m4hop (VHH)
VHH: B1 VHH with Q5V, A6E
notes: Theoretical pI 7.04

Target: T1, CHIKV VLPs (Chikungunya virus, VLP strain not …, UniProt Q5XXP3)
T1 construct: also called CHIKV virus-like particles
Test: MagPlex direct binding assay
Conditions: both partners purified

T1 sequence (Q5XXP3 whole entry, looked up): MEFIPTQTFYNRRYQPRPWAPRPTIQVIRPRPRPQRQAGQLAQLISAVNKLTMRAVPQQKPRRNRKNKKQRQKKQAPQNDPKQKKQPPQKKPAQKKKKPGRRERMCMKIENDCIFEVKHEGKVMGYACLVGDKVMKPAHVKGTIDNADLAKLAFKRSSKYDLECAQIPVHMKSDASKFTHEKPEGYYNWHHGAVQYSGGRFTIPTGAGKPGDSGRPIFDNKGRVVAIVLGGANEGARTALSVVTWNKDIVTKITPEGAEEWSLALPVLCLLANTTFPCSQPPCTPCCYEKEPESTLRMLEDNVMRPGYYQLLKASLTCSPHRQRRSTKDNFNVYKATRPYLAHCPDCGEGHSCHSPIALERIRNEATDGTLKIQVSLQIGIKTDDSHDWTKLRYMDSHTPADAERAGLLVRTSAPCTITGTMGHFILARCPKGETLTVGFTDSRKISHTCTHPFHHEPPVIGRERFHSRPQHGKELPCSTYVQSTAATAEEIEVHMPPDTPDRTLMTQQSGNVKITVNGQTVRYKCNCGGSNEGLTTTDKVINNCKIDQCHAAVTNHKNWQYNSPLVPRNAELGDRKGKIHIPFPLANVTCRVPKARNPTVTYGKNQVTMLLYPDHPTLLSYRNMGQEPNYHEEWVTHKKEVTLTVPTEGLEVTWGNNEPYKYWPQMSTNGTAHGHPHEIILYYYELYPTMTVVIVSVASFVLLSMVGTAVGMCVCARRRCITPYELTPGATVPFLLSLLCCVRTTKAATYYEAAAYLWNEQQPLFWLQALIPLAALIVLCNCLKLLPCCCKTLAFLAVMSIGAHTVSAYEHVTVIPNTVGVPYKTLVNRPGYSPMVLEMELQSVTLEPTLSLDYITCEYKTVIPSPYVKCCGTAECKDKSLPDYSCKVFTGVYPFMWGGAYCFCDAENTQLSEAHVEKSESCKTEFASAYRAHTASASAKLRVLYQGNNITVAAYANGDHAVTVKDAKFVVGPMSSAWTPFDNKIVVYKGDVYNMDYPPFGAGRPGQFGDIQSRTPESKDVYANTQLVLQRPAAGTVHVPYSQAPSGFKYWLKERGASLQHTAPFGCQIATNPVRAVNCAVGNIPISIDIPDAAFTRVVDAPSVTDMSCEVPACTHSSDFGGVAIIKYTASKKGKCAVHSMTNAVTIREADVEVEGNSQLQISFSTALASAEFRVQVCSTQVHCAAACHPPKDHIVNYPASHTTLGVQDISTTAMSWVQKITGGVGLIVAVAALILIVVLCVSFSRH

Binder | binding result
B1 | binds
B2 | binds
B3 | binds
B4 | binds
B5 | binds
B6 | binds
B7 | binds
B8 | binds
B9 | binds
